Assay results as given in patent publication US20240190987A1, “Engineered EpCam Binding Antibodies” (TigaTX, priority 2021, published 2024).
Changes are numbered by the printed parent chain. Names may count otherwise. “Also recorded” adds a separate entry of the source.

Tests used:
[1] = SPR binding of free indinavir to LS2A clones; conditions: read-out: Affinity to free Indinavir by SPR
Experimental: Detailed methods are described in the methods section. […] A 3-fold serial dilution of indinavir was injected over sensor chip and binding was measured using single-cycle kinetics. The data was double reference subtracted and fit to a 1:1 Langmuir kinetic model.
All assays were performed at 25° C. in 1×PBS-P+ buffer made from a 10× buffer stock (Cytiva 28995084). […] For Ab0759, a single-cycle kinetics experiment was performed with five sequential injections of 3-fold serial diluted (37, 111, 333, 1000, 3000 nM) indinavir at 30 μL/min for 240 seconds each and dissociation was monitored for 600 seconds. […] The data was double referenced subtracted to the reference lane and five sequential injections of 0 nM indinavir. The kinetic data was fit to a 1:1 Langmuir model to determine the association and dissociation rate constants.

[2] = Differential scanning fluorimetry (DSF) melting temperature; assay type: physicochemical
Experimental: DSF was performed on a LC480 Lightcycler Instrument II (Roche). Purified recombinant protein was diluted to 5 μM in DSF buffer (PBS, pH 7.4, Sypro Orange 5×) with small molecule (10 μM VTX) or vehicle (0.05% DMSO) and then heated with a temperature gradient (0.01° C./s) from 25 to 95° C. Data were continuously acquired at ˜465 nm (excitation) and ˜580 nm (emission). Data was analyzed to generate first derivative curves in which the curve maximum was reported as the melting temperature of the protein.

[3] = test system: LS2A R3M1 (Ab0786); experiment: BLI binding of LS2B variants to LS2A R3M1 (Ab0786) with indinavir; conditions: for binding to LS2A clones (FIG. 17): biotinylated Ab0785 (R2M34) or Ab0786 (R3M1) captured, indinavir present; for Kd: five-point kinetics, values equal Table 15 column LS2A Ab0786
Experimental: Binding kinetics were measured by biolayer interferometry (BLI). Biotinylated-Ab0785 (LS2A R2M34 Fab) or biotinylated-Ab0786 (LS2A R3M1 Fab) was captured by streptavidin biosensors and binding to Ab1071 (LS2B R5M2 Fab), Ab1072 (LS2B R7M1 Fab), and Ab1073 (LS2B R7M2 Fab) was measured in the presence of […].
In R6 of engineering, alanine scanning of clone R4M16 were performed to find improved binding to LS2A R3M2 (Ab0787) and LS2A R3M1 (Ab0786). Variants were screened for binding to LS2A (Ab0223) and LS2A R3M2 (Ab0787) with a single-point kinetic screen.
In R7, combination mutants from R6 were designed to generate further affinity variants. Variants were screened for binding to LS2A Ab0787 and Ab0786 with a single-point kinetic screen. Five-point kinetics was measured for a subset of molecules.
(§1) Bio-layer interferometry (BLI) data were measured using an Octet RED384 (ForteBio) instrument. Antigens of interest were immobilized on an AHC biosensor and loaded until a 0.4-0.6-nm signal was achieved. Purified antibodies were used as the analyte premixed with 10 μM Indinavir or 0.05% DMSO vehicle. PBSTB (PBS, pH 7.4, 0.05% Tween-20, 0.2% BSA) was used for all buffers for BLI. Data were analyzed using ForteBio Octet analysis software and kinetic parameters were determined using a 1:1 monovalent binding model.

[4] = test system: Ag0067 (LS2A R2M9); experiment: BLI LITE Switch indinavir washout/reversibility kinetics; assay type: binding
Experimental: Binding was measured by biolayer interferometry (BLI). Biotinylated-Ag0067 (LS2A R2M9) was captured on streptavidin biosensors. Binding of 50 nM Ab1073 (LS2B R7M2) to Ag0067 was allowed to reach steady-state in the presence of 1 μM IDV. Complex dissociation was subsequently performed for 2 hours in buffer containing (1) 50 nM Ab1073 and 1 μM IDV, (2) 50 nM Ab1073 and vehicle (washout), and (3) vehicle only. […] In 2 hours of IDV washout, the LITE Switch dissociated to nearly 0% complex, whereas complete complex dissociation was observed within 10 min upon removal of both Ab1073 and IDV.
LITE Switch indinivir (IDV) washout/reversibility kinetics (FIG. 21) were measured by biolayer interferometry (BLI) on an Octet® Qke (Sartorius) instrument. Biotinylated scFv-Fc Ag67, in the presence of 1 μM IDV or 0.05% DMSO vehicle, was immobilized on streptavidin biosensors and loaded to a signal of 1.2-1.8 nm. After loading, biosensors were blocked with 10 μM biotin containing 1 μM IDV or vehicle. […] Data were analyzed using ForteBio Data Analysis HT software version 12.0.2.59. Dissociation constants were determined using a 1:1 monovalent binding model, local fitting, and with dissociation baseline to zero. Data were additionally analyzed using GraphPad Prism 9 software version 9.1.2 (225) with a one-phase exponential decay nonlinear regression model. […]

[5] = target: Ab0902 (LS2B R5M2); experiment: BLI indinavir-dependent binding of LS2A Ab0223 to LS2B Ab0902
Experimental: Binding was measured by biolayer interferometry (BLI). Ab0902 (LS2B R5M2) was captured by anti-hIgG Fc capture (AHC) biosensors and kinetics was measured to Ab0223 (LS2A humanized parent) in the presence of […].
A series of biophysical experiments was conducted to further elucidate a mechanism for Indinavir switch assembly. Biolayer interferometry experiments were performed to measure LS2A and LS21B assembly in the presence and absence of saturating concentrations of Indinavir. […] A BLI kinetics assay was performed to assess the reversibility kinetics of the LS2A/LS2B complex upon Indinavir washout.
as §1

B1: Ab0899: humanized LS2A R3M1 (protein)
scFv: QVQLVQSGAEVKKPGASVKVSCKASGYTFTSYWMHWVRQHPGQGLEWMGMIHPNSGGTNYAQKFQGRVTMTRDTSTSTVYMELSSLRSEDTAVYYCAMGDYVSRDYWGQGTLVTVSSGGGGSGGGGSGGGGSEIVLTQSPGTLSLSPGERATLSCRASSSVSSSYLHWYQQKPGQAPRLLIYSTSSRATGIPDRFSGSGSGTDFTLTISRLEPEDFAVYYCQQYSGYQFTFGQGTKLEIK
modifications: left off: a dimerising Fc or GST; small tags and cut ends
notes: humanized LS2A R3M1
In the case of B1, the Kd [1] is reported as 4.6 nM and the “TM (° C.)” value ([2]; scFv-Fc format, LS2A R3 (Table 20)) is reported as 56.1 °C.

B2: Ab1071: LS2B R5M2 Fab (antibody, V domains shown)
VH: EVQLVESGGGLVQPGGSLRLSCAASGFDFSSYSIHWVRQAPGKGLEWVASISPYYGSTYYADSVKGRFTISADTSKNTAYLQMNSLRAEDTAVYYCARYYEWYKYDLYAGSLGFDYWGQGTLVTVSS
VL: DIQMTQSPSSLSASVGDRVTITCRASQSVSSAVAWYQQKPGKAPKLLIYSASSLYSGVPSRFSGSRSGTDFTLTISSLQPEDFATYYCQQGGYSLITFGQGTKVEIK
In the case of B2, the “binding to LS2A clones (FIG. 17)” value [3] is reported as “weaker binding to LS2A R3M1 compared to LS2A R2M34”.

B3: Ab1045: LS2B; HC: S50A+W98Y on Ab0902 (antibody, V domains shown)
VH: B2 VH with S50A, W102Y
VL: B2 VL
In the case of B3, the “TM (° C.)” value ([2]; Table 15) is reported as 77.7 °C and the Kd [3] is reported as 40 nM.

B4: Ab1044: LS2B; HC: S50A on Ab0902 (antibody, V domains shown)
VH: B2 VH with S50A
VL: B2 VL
In the case of B4, the “TM (° C.)” value ([2]; Table 15) is reported as 78.3 °C and the Kd [3] is reported as 8.6 nM.

B5: Ab1072: LS2B R7M1 Fab (antibody, V domains shown)
VH: B2 VH with S50A
VL: B2 VL
With B5 the “binding to LS2A clones (FIG. 17)” value [3] was “improved affinities”.

B6: Ab1073: LS2B R7M2 Fab (antibody, V domains shown)
VH: B2 VH with S50A, W102Y
VL: B2 VL
With B6 the “binding to LS2A clones (FIG. 17)” value [3] was “improved affinities”, the “LITE Switch reversibility at constant Ab1073 and IDV” value ([4]; 50 nM Ab1073 and 1 μM IDV) was “no LITE Switch reversibility was observed” and the “complex remaining after IDV washout” value ([4]; 2 hours, 50 nM Ab1073 and vehicle) was about 0%.

B7: Ab0223: LS2A humanized parent (antibody, V domains shown)
VH: QVQLVQSGAEVKKPGASVKVSCKASGYTFTSYWMHWVRQAPGQGLEWMGIIHPNSGGTSYAQKFQGRVTMTRDTSTSTVYMELSSLRSEDTAVYYCAMGDYVSRDYWGQGTLVTVSS
VL: EIVLTQSPGTLSLSPGERATLSCRASSSVSSSYLHWYQQKPGQAPRLLIYSTSSRATGIPDRFSGSGSGTDFTLTISRLEPEDFAVYYCQQYSGYLFTFGQGTKLEIK
In the case of B7, the Kd ([5]; in the presence of 10 μM IDV, read-out: affinity for binding to Ab0902) is reported as 1.6 nM and the “binding to Ab0902 in the absence of Indinavir” value ([5]; no indinavir) is reported as “no binding was detected; also recorded: no detectable interaction”.
